# ChEMBL document CHEMBL4673265, “The food-grade antimicrobial xanthorrhizol targets the enoyl-ACP reductase (FabI) in Escherichia coli” (Bioorg Med Chem Lett, 2020)
# T1: Enoyl-[acyl-carrier-protein] reductase [NADH] FabI (Escherichia coli K-12, UniProt P0AEK4)
# T1 sequence (P0AEK4 whole entry): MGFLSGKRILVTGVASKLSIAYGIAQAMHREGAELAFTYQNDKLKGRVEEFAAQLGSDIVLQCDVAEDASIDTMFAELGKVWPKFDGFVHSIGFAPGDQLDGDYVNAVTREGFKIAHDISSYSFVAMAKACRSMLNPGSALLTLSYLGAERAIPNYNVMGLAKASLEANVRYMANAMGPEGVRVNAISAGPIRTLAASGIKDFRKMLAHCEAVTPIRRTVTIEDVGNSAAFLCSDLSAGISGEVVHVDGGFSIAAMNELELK
# What was measured:
# [1] = tested on: Escherichia coli; assay: Antimicrobial activity against Escherichia coli ATCC 35218; format: functional
# [2] = tested on: Mycobacterium tuberculosis; assay: Antibacterial activity against Mycobacterium tuberculosis H37Rv ATCC 27294 incubated for 7 days by microplate alamar blue assay; format: functional; conditions: 168 h, time 7 day
# [3] = biological target: T1, Enoyl-[acyl-carrier-protein] reductase [NADH] FabI; assay: Inhibition of Escherichia coli FabI using trans-2-[…]-N-acetylcysteamine as substrate by spectrophotometry
# [4] = tested on: Escherichia coli; assay: Antimicrobial activity against Escherichia coli W3110 imp4213 expressing pCA24N-fab/ Y156V mutant assessed as absence of growth; format: functional
# [5] = tested on: Escherichia coli; assay: Antimicrobial activity against Escherichia coli W3110 imp4213 expressing pCA24N-fabI mutant assessed as absence of growth; format: functional
# [6] = tested on: Escherichia coli; assay: Antimicrobial activity against Escherichia coli W3110 imp4213 expressing fabI G93V mutant assessed as absence of growth; format: functional
# [7] = tested on: Escherichia coli; assay: Antimicrobial activity against Escherichia coli W3110 imp4213 expressing pCA24N-fab F204V mutant assessed as absence of growth; format: functional
# [8] = tested on: Escherichia coli; assay: Antimicrobial activity against Escherichia coli W3110 imp4213 assessed as absence of growth; format: functional
# [9] = tested on: Escherichia coli; assay: Antimicrobial activity against Escherichia coli W3110 imp4213 expressing pCA24N-fab F203L mutant assessed as absence of growth; format: functional
# [10] = tested on: Escherichia coli; assay: Antimicrobial activity against Escherichia coli W3110 imp4213 expressing pCA24N mutant assessed as absence of growth; format: functional
# [11] = tested on: Escherichia coli; assay: Antimicrobial activity against Escherichia coli W3110 imp4213 expressing fabI392 mutant assessed as absence of growth; format: functional
# [12] = tested on: Escherichia coli; assay: Antibacterial activity against Escherichia coli BW25113 assessed as effect on growth rate per hour at 0.128 uM incubated for 24 hrs by microplate reader; format: functional
# [13] = Inhibition of Staphylococcus aureus FabI assessed as incorporation of [1-14C]acetate to L-[U-14C]leucine
# [14] = tested on: Staphylococcus aureus; assay: Antimicrobial activity against Staphylococcus aureus assessed as complete inhibition of growth after 24 hrs by broth microdilution method; format: functional
# [15] = compound: NC(=O)C1=CN([C@@H]2O[C@H](COP(=O)(O)OP(=O)(O)OC[C@H]3O[C@@H](n4cnc5c(N)ncnc54)[C@H](O)[C@@H]3O)[C@@H](O)[C@H]2O)C=CC1; assay: Inhibition of wild-type Escherichia coli FabI assessed as ratio of Kcat/Km
# [16] = compound: NC(=O)C1=CN([C@@H]2O[C@H](COP(=O)(O)OP(=O)(O)OC[C@H]3O[C@@H](n4cnc5c(N)ncnc54)[C@H](O)[C@@H]3O)[C@@H](O)[C@H]2O)C=CC1; assay: Inhibition of wild-type Escherichia coli FabI assessed as reduction in Km
# [17] = compound: NC(=O)C1=CN([C@@H]2O[C@H](COP(=O)(O)OP(=O)(O)OC[C@H]3O[C@@H](n4cnc5c(N)ncnc54)[C@H](O)[C@@H]3O)[C@@H](O)[C@H]2O)C=CC1; assay: Inhibition of wild-type Escherichia coli FabI catalytic activity
# [18] = compound: NC(=O)C1=CN([C@@H]2O[C@H](COP(=O)(O)OP(=O)(O)OC[C@H]3O[C@@H](n4cnc5c(N)ncnc54)[C@H](O)[C@@H]3O)[C@@H](O)[C@H]2O)C=CC1; assay: Inhibition of Escherichia coli FabI F203V mutant assessed as reduction in Km
# [19] = compound: NC(=O)C1=CN([C@@H]2O[C@H](COP(=O)(O)OP(=O)(O)OC[C@H]3O[C@@H](n4cnc5c(N)ncnc54)[C@H](O)[C@@H]3O)[C@@H](O)[C@H]2O)C=CC1; assay: Inhibition of Escherichia coli FabI F203V mutant catalytic activity
# [20] = compound: NC(=O)C1=CN([C@@H]2O[C@H](COP(=O)(O)OP(=O)(O)OC[C@H]3O[C@@H](n4cnc5c(N)ncnc54)[C@H](O)[C@@H]3O)[C@@H](O)[C@H]2O)C=CC1; assay: Inhibition of Escherichia coli FabI F203V mutant assessed as ratio of Kcat/Km
# [21] = compound: NC(=O)C1=CN([C@@H]2O[C@H](COP(=O)(O)OP(=O)(O)OC[C@H]3O[C@@H](n4cnc5c(N)ncnc54)[C@H](O)[C@@H]3O)[C@@H](O)[C@H]2O)C=CC1; assay: Inhibition of Escherichia coli FabI Y156V mutant assessed as reduction in Km
# [22] = compound: NC(=O)C1=CN([C@@H]2O[C@H](COP(=O)(O)OP(=O)(O)OC[C@H]3O[C@@H](n4cnc5c(N)ncnc54)[C@H](O)[C@@H]3O)[C@@H](O)[C@H]2O)C=CC1; assay: Inhibition of Escherichia coli FabI Y156V mutant assessed as ratio of Kcat/Km
# [23] = compound: NC(=O)C1=CN([C@@H]2O[C@H](COP(=O)(O)OP(=O)(O)OC[C@H]3O[C@@H](n4cnc5c(N)ncnc54)[C@H](O)[C@@H]3O)[C@@H](O)[C@H]2O)C=CC1; assay: Inhibition of Escherichia coli FabI Y156V mutant catalytic activity
# [24] = compound: CC(C)=CCC[C@@H](C)c1ccc(C)c(O)c1; assay: Uncompetitive inhibition of Escherichia coli FabI G93V mutant assessed inhibition constant using NADH as substrate by Lineweaver-Burk analysis
# [25] = compound: NC(=O)C1=CN([C@@H]2O[C@H](COP(=O)(O)OP(=O)(O)OC[C@H]3O[C@@H](n4cnc5c(N)ncnc54)[C@H](O)[C@@H]3O)[C@@H](O)[C@H]2O)C=CC1; assay: Inhibition of Escherichia coli FabI G93V mutant assessed as reduction in Km
# [26] = compound: NC(=O)C1=CN([C@@H]2O[C@H](COP(=O)(O)OP(=O)(O)OC[C@H]3O[C@@H](n4cnc5c(N)ncnc54)[C@H](O)[C@@H]3O)[C@@H](O)[C@H]2O)C=CC1; assay: Inhibition of Escherichia coli FabI G93V mutant assessed as ratio of Kcat/Km
# [27] = compound: NC(=O)C1=CN([C@@H]2O[C@H](COP(=O)(O)OP(=O)(O)OC[C@H]3O[C@@H](n4cnc5c(N)ncnc54)[C@H](O)[C@@H]3O)[C@@H](O)[C@H]2O)C=CC1; assay: Inhibition of Escherichia coli FabI G93V mutant catalytic activity
# [28] = compound: NC(=O)C1=CN([C@@H]2O[C@H](COP(=O)(O)OP(=O)(O)OC[C@H]3O[C@@H](n4cnc5c(N)ncnc54)[C@H](O)[C@@H]3O)[C@@H](O)[C@H]2O)C=CC1; assay: Inhibition of Escherichia coli FabI F203L mutant assessed as reduction in Km
# [29] = compound: NC(=O)C1=CN([C@@H]2O[C@H](COP(=O)(O)OP(=O)(O)OC[C@H]3O[C@@H](n4cnc5c(N)ncnc54)[C@H](O)[C@@H]3O)[C@@H](O)[C@H]2O)C=CC1; assay: Inhibition of Escherichia coli FabI F203L mutant assessed as ratio of Kcat/Km
# [30] = compound: NC(=O)C1=CN([C@@H]2O[C@H](COP(=O)(O)OP(=O)(O)OC[C@H]3O[C@@H](n4cnc5c(N)ncnc54)[C@H](O)[C@@H]3O)[C@@H](O)[C@H]2O)C=CC1; assay: Inhibition of Escherichia coli FabI F203L mutant catalytic activity
molecule,measurement,setting,value
C=C1C(=O)OCC1C/C=C(\C)CC(=O)C=C(C)C (stereo not given) [ANTHECOTULIDE],MIC,[1],25 µg/mL
same,MIC,[2],20.2 µg/mL
O=C(O[C@@H]1Cc2c(O)cc(O)cc2O[C@@H]1c1cc(O)c(O)c(O)c1)c1cc(O)c(O)c(O)c1 [EPIGALOCATECHIN GALLATE],IC50,[3],5 µM
Oc1cc(Cl)ccc1Oc1ccc(Cl)cc1Cl [TRICLOSAN],MIC,[4],2.05 µg/mL
same,MIC,[5],0.512 µg/mL
same,MIC,[6],> 1.28 µg/mL
same,MIC,[7],2.05 µg/mL
same,MIC,[8],0.02 µg/mL
same,MIC,[9],> 2.05 µg/mL
same,MIC,[10],0.02 µg/mL
same,MIC,[11],0.002 µg/mL
same,Activity,[12],0.4
CC(=O)c1cc2c(=O)c3c(C(=O)O)c(O)c(O)cc3oc2c(C(C)=O)c1-c1coc2cc(O)c(O)c(C(=O)O)c2c1=O [VINAXANTHONE],IC50,[13],0.9 µM
same,MIC,[14],32 µg/mL
"Enoyl-[acyl-carrier-protein] reductase [NADH] FabI (Escherichia coli K-12), P0AEK4 (protein) MGFLSGKRILVTGVASKLSIAYGIAQAMHREGAELAFTYQNDKLKGRVEEFAAQLGSDIVLQCDVAEDASIDTMFAELGKVWPKFDGFVHSIGFAPGDQLDGDYVNAVTREGFKIAHDISSYSFVAMAKACRSMLNPGSALLTLSYLGAERAIPNYNVMGLAKASLEANVRYMANAMGPEGVRVNAISAGPIRTLAASGIKDFRKMLAHCEAVTPIRRTVTIEDVGNSAAFLCSDLSAGISGEVVHVDGGFSIAAMNELELK",kcat/Km,[15],150000 M⁻¹ s⁻¹
same,Km,[16],70.2 µM
same,kcat,[17],10.8 s⁻¹
"Enoyl-[acyl-carrier-protein] reductase [NADH] FabI (Escherichia coli K-12), P0AEK4 F203V (protein) MGFLSGKRILVTGVASKLSIAYGIAQAMHREGAELAFTYQNDKLKGRVEEFAAQLGSDIVLQCDVAEDASIDTMFAELGKVWPKFDGFVHSIGFAPGDQLDGDYVNAVTREGFKIAHDISSYSFVAMAKACRSMLNPGSALLTLSYLGAERAIPNYNVMGLAKASLEANVRYMANAMGPEGVRVNAISAGPIRTLAASGIKDVRKMLAHCEAVTPIRRTVTIEDVGNSAAFLCSDLSAGISGEVVHVDGGFSIAAMNELELK",Km,[18],44.2 µM
same,kcat,[19],0.38 s⁻¹
same,kcat/Km,[20],9000 M⁻¹ s⁻¹
"Enoyl-[acyl-carrier-protein] reductase [NADH] FabI (Escherichia coli K-12), P0AEK4 Y156V (protein) MGFLSGKRILVTGVASKLSIAYGIAQAMHREGAELAFTYQNDKLKGRVEEFAAQLGSDIVLQCDVAEDASIDTMFAELGKVWPKFDGFVHSIGFAPGDQLDGDYVNAVTREGFKIAHDISSYSFVAMAKACRSMLNPGSALLTLSYLGAERAIPNVNVMGLAKASLEANVRYMANAMGPEGVRVNAISAGPIRTLAASGIKDFRKMLAHCEAVTPIRRTVTIEDVGNSAAFLCSDLSAGISGEVVHVDGGFSIAAMNELELK",Km,[21],41.7 µM
same,kcat/Km,[22],4000 M⁻¹ s⁻¹
same,kcat,[23],0.16 s⁻¹
"Enoyl-[acyl-carrier-protein] reductase [NADH] FabI (Escherichia coli K-12), P0AEK4 G93V (protein) MGFLSGKRILVTGVASKLSIAYGIAQAMHREGAELAFTYQNDKLKGRVEEFAAQLGSDIVLQCDVAEDASIDTMFAELGKVWPKFDGFVHSIVFAPGDQLDGDYVNAVTREGFKIAHDISSYSFVAMAKACRSMLNPGSALLTLSYLGAERAIPNYNVMGLAKASLEANVRYMANAMGPEGVRVNAISAGPIRTLAASGIKDFRKMLAHCEAVTPIRRTVTIEDVGNSAAFLCSDLSAGISGEVVHVDGGFSIAAMNELELK",Ki,[24],4.1 µM
same,Km,[25],30.9 µM
same,kcat/Km,[26],110000 M⁻¹ s⁻¹
same,kcat,[27],3.44 s⁻¹
"Enoyl-[acyl-carrier-protein] reductase [NADH] FabI (Escherichia coli K-12), P0AEK4 F203L (protein) MGFLSGKRILVTGVASKLSIAYGIAQAMHREGAELAFTYQNDKLKGRVEEFAAQLGSDIVLQCDVAEDASIDTMFAELGKVWPKFDGFVHSIGFAPGDQLDGDYVNAVTREGFKIAHDISSYSFVAMAKACRSMLNPGSALLTLSYLGAERAIPNYNVMGLAKASLEANVRYMANAMGPEGVRVNAISAGPIRTLAASGIKDLRKMLAHCEAVTPIRRTVTIEDVGNSAAFLCSDLSAGISGEVVHVDGGFSIAAMNELELK",Km,[28],51.5 µM
same,kcat/Km,[29],70000 M⁻¹ s⁻¹
same,kcat,[30],3.65 s⁻¹
